Measurements from the supplement of paper PMC5998384.

Assays:
HeLa Kyoto [1] = test: solubility in G1/S (NP-40 vs SDS abundance) (log2 ratio); higher = more soluble; conditions: cell cycle stage: G1/S
HeLa Kyoto [2] = test: melting temperature (median over replicates), in situ; higher = more thermally stable
HeLa Kyoto [3] = test: solubility change mitosis vs G1/S (difference of NP-40 vs SDS log2 ratios) (log2 ratio difference); higher = more soluble in mitosis
HeLa Kyoto [4] = test: thermal stability score vs G1/S (z-score of summed log2 fold changes over temperatures); higher = more thermally stable than in G1/S
[5] = cell cycle stage: early G1 (4.5 h after nocodazole release)
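Throughout, for melting temperature (median over replicates), in situ: HeLa Kyoto cells synchronized by double thymidine or nocodazole block, proteins quantified by TMT10plex mass spectrometry, three independent biological replicates.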
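Throughout, for solubility change mitosis vs G1/S (difference of NP-40 vs SDS log2 ratios): synchronized HeLa Kyoto cells (double thymidine block for G1/S, nocodazole release for mitosis), protein amounts in NP-40 versus SDS lysates quantified by mass spectrometry, three biological replicates.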
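Throughout, for solubility in G1/S (NP-40 vs SDS abundance): HeLa Kyoto cells arrested at G1/S by double thymidine block, proteins quantified by TMT10plex mass spectrometry in mild NP-40 versus SDS extracts, three biological replicates.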
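Throughout, for thermal stability score vs G1/S (z-score of summed log2 fold changes over temperatures): synchronized HeLa Kyoto cells, proteins quantified by TMT10plex mass spectrometry, three biological replicates, mitosis taken 0.5 h after nocodazole release, G1/S directly after double thymidine block.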

Sequence	solubility in G1/S (log2) (HeLa Kyoto [1])	melting temperature (HeLa Kyoto [2]; cell cycle stage: G1/S) [°C]	melting temperature (HeLa Kyoto [2]; cell cycle stage: mitosis) [°C]	solubility change mitosis (log2) (HeLa Kyoto [3])	thermal stability score (HeLa Kyoto [4]; [5])	thermal stability score (HeLa Kyoto [4]; cell cycle stage: mitosis)
MAEFTSYKETASSRHLRFKLQSLSRRLDELEEATKNLQKAEDELLDLQDKVIQAEGSNSSMLAEIEVLRQRVLRIEGKDEEIKRAEDLCRLMKEKLEEEENLTRELKSEIERLQKRMAELEKLEEAFSRSKNDCTQLCLSLNEERNLTKKISSELEMLRVKVKELESSEDRLDKTEQSLASELEKLKSLTLSFVSERKYLNEKEKENEKLIKELTQKLEQNKKMNRDYTRNASNLERNDLRIEDGISSTLPSKESRRKGGLDYLKQVENETRNKSENEKNRNQEDNKVKDLNQEIEKLKTQIKHFESLEEELKKMKSKNNDLQDNYLSEQNKNKLLASQLEEIKLQIKKQKELENGEVEGEDAFLSSKGRHERTKFRGHGSEASVSKHTARELSPQHKRERLRNREFALNNENYSLSNRQVSSPSFTNRRAAKASHMGVSTDSGTQETKKTEDRFVPGSSQSEGKKSREQPSVLSRYPPAAQEHSKAWKGTSKPGTESGLKGKVEKTTRTFSDTTHGSVPSDPLGRADKASDTSSETVFGKRGHVLGNGSQVTQAANSGCSKAIGALASSRRSSSEGLSKGKKAANGLEADNSCPNSKAPVLSKYPYSCRSQENILQGFSTSHKEGVNQPAAVVMEDSSPHEALRCRVIKSSGREKPDSDDDLDIASLVTAKLVNTTITPEPEPKPQPNSREKAKTRGAPRTSLFENDKDAGMENESVKSVRASTNTMELPDTNGAGVKSQRPFSPREALRSRAIIKPVIVDKDVKKIMGGSGTETTLEKQKPVSKPGPNKVTSSITIYPSDSSSPRAAPGEALRERHTSTSNIQVGLAELTSVSNHVSSPFELSIHKHDITLQLAEAERMADGPLKDRPETVVSRSSIIIKPSDPVERNSHAPPAETIRWKSHSAPSEVGFSDARHVTVRNAWKSRRDLKSLEDPPTRIGKNVESTNSNAYTQRSSTDFSELEQPRSCLFEQGTRRVGPSSGDAPEPSSRRTQSSLTVSEVLTRRNRVGDTITVAAWNHSASMEEEGEDCTLSVYRQLHNSLDPSELPGKQGLPESGRVRAEERLRPTRPCAEEN [LUZP1]	-0.781	51.8	52.3	0.14	0.392	0.722
MAEGGAADLDTQRSDIATLLKTSLRKGDTWYLVDSRWFKQWKKYVGFDSWDKYQMGDQNVYPGPIDNSGLLKDGDAQSLKEHLIDELDYILLPTEGWNKLVSWYTLMEGQEPIARKVVEQGMFVKHCKVEVYLTELKLCENGNMNNVVTRRFSKADTIDTIEKEIRKIFSIPDEKETRLWNKYMSNTFEPLNKPDSTIQDAGLYQGQVLVIEQKNEDGTWPRGPSTPKSPGASNFSTLPKISPSSLSNNYNNMNNRNVKNSNYCLPSYTAYKNYDYSEPGRNNEQPGLCGLSNLGNTCFMNSAIQCLSNTPPLTEYFLNDKYQEELNFDNPLGMRGEIAKSYAELIKQMWSGKFSYVTPRAFKTQVGRFAPQFSGYQQQDCQELLAFLLDGLHEDLNRIRKKPYIQLKDADGRPDKVVAEEAWENHLKRNDSIIVDIFHGLFKSTLVCPECAKISVTFDPFCYLTLPLPMKKERTLEVYLVRMDPLTKPMQYKVVVPKIGNILDLCTALSALSGIPADKMIVTDIYNHRFHRIFAMDENLSSIMERDDIYVFEININRTEDTEHVIIPVCLREKFRHSSYTHHTGSSLFGQPFLMAVPRNNTEDKLYNLLLLRMCRYVKISTETEETEGSLHCCKDQNINGNGPNGIHEEGSPSEMETDEPDDESSQDQELPSENENSQSEDSVGGDNDSENGLCTEDTCKGQLTGHKKRLFTFQFNNLGNTDINYIKDDTRHIRFDDRQLRLDERSFLALDWDPDLKKRYFDENAAEDFEKHESVEYKPPKKPFVKLKDCIELFTTKEKLGAEDPWYCPNCKEHQQATKKLDLWSLPPVLVVHLKRFSYSRYMRDKLDTLVDFPINDLDMSEFLINPNAGPCRYNLIAVSNHYGGMGGGHYTAFAKNKDDGKWYYFDDSSVSTASEDQIVSKAAYVLFYQRQDTFSGTGFFPLDRETKGASAATGIPLESDEDSNDNDNDIENENCMHTN [USP15]	0.00479	49.8	49.9	-0.118	-0.274	0.549
MAEGNTLISVDYEIFGKVQGVFFRKHTQAEGKKLGLVGWVQNTDRGTVQGQLQGPISKVRHMQEWLETRGSPKSHIDKANFNNEKVILKLDYSDFQIVK [ACYP1]	0.223	52.3	52.7	-0.0383	0.389	-1.31
MAEGTAEAPLENGGGGDSGAGALERGVAPIKRQYLTTKEQFHQFLEAKGQEKTCRETEVGDPAGNELAEPEAKRIRLEDGQTADGQTEEAAEPGEQLQTQKRARGQNKGRPHVKPTNYDKNRLCPSLIQESAAKCFFGDRCRFLHDVGRYLETKPADLGPRCVLFETFGRCPYGVTCRFAGAHLRPEGQNLVQEELAARGTQPPSIRNGLDKALQQQLRKREVRFERAEQALRRFSQGPTPAAAVPEGTAAEGAPRQENCGAQQVPAGPGTSTPPSSPVRTCGPLTDEDVVRLRPCEKKRLDIRGKLYLAPLTTCGNLPFRRICKRFGADVTCGEMAVCTNLLQGQMSEWALLKRHQCEDIFGVQLEGAFPDTMTKCAELLSRTVEVDFVDINVGCPIDLVYKKGGGCALMNRSTKFQQIVRGMNQVLDVPLTVKIRTGVQERVNLAHRLLPELRDWGVALVTLHGRSREQRYTKLADWQYIEECVQAASPMPLFGNGDILSFEDANRAMQTGVTGIMIARGALLKPWLFTEIKEQRHWDISSSERLDILRDFTNYGLEHWGSDTQGVEKTRRFLLEWLSFLCRYVPVGLLERLPQRINERPPYYLGRDYLETLMASQKAADWIRISEMLLGPVPPSFAFLPKHKANAYK [DUS3L]	-0.0832	49	48.5	-0.0331	1.52	2.59
MAEISDLDRQIEQLRRCELIKESEVKALCAKAREILVEESNVQRVDSPVTVCGDIHGQFYDLKELFRVGGDVPETNYLFMGDFVDRGFYSVETFLLLLALKVRYPDRITLIRGNHESRQITQVYGFYDECLRKYGSVTVWRYCTEIFDYLSLSAIIDGKIFCVHGGLSPSIQTLDQIRTIDRKQEVPHDGPMCDLLWSDPEDTTGWGVSPRGAGYLFGSDVVAQFNAANDIDMICRAHQLVMEGYKWHFNETVLTVWSAPNYCYRCGNVAAILELDEHLQKDFIIFEAAPQETRGIPSKKPVADYFL [PPP4C]	-0.237	54.8	55.3	-0.0748	0.0354	-1.42
MAEKVLVTGGAGYIGSHTVLELLEAGYLPVVIDNFHNAFRGGGSLPESLRRVQELTGRSVEFEEMDILDQGALQRLFKKYSFMAVIHFAGLKAVGESVQKPLDYYRVNLTGTIQLLEIMKAHGVKNLVFSSSATVYGNPQYLPLDEAHPTGGCTNPYGKSKFFIEEMIRDLCQADKTWNAVLLRYFNPTGAHASGCIGEDPQGIPNNLMPYVSQVAIGRREALNVFGNDYDTEDGTGVRDYIHVVDLAKGHIAALRKLKEQCGCRIYNLGTGTGYSVLQMVQAMEKASGKKIPYKVVARREGDVAACYANPSLAQEELGWTAALGLDRMCEDLWRWQKQNPSGFGTQA [GALE]	0.453	53.3	53.8	-0.146	-3.9	-0.458
MAELGAGGDGHRGGDGAVRSETAPDSYKVQDKKNASSRPASAISGQNNNHSGNKPDPPPVLRVDDRQRLARERREEREKQLAAREIVWLEREERARQHYEKHLEERKKRLEEQRQKEERRRAAVEEKRRQRLEEDKERHEAVVRRTMERSQKPKQKHNRWSWGGSLHGSPSIHSADPDRRSVSTMNLSKYVDPVISKRLSSSSATLLNSPDRARRLQLSPWESSVVNRLLTPTHSFLARSKSTAALSGEAASCSPIIMPYKAAHSRNSMDRPKLFVTPPEGSSRRRIIHGTASYKKERERENVLFLTSGTRRAVSPSNPKARQPARSRLWLPSKSLPHLPGTPRPTSSLPPGSVKAAPAQVRPPSPGNIRPVKREVKVEPEKKDPEKEPQKVANEPSLKGRAPLVKVEEATVEERTPAEPEVGPAAPAMAPAPASAPAPASAPAPAPVPTPAMVSAPSSTVNASASVKTSAGTTDPEEATRLLAEKRRLAREQREKEERERREQEELERQKREELAQRVAEERTTRREEESRRLEAEQAREKEEQLQRQAEERALREREEAERAQRQKEEEARVREEAERVRQEREKHFQREEQERLERKKRLEEIMKRTRRTEATDKKTSDQRNGDIAKGALTGGTEVSALPCTTNAPGNGKPVGSPHVVTSHQSKVTVESTPDLEKQPNENGVSVQNENFEEIINLPIGSKPSRLDVTNSESPEIPLNPILAFDDEGTLGPLPQVDGVQTQQTAEVI [MAP7]	-0.661	54.3	52.1	0.704	-5.44	-8.57
MAELQMLLEEEIPSGKRALIESYQNLTRVADYCENNYIQATDKRKALEETKAYTTQSLASVAYQINALANNVLQLLDIQASQLRRMESSINHISQTVDIHKEKVARREIGILTTNKNTSRTHKIIAPANMERPVRYIRKPIDYTVLDDVGHGVKWLKAKHGNNQPARTGTLSRTNPPTQKPPSPPMSGRGTLGRNTPYKTLEPVKPPTVPNDYMTSPARLGSQHSPGRTASLNQRPRTHSGSSGGSGSRENSGSSSIGIPIAVPTPSPPTIGPENISVPPPSGAPPAPPLAPLLPVSTVIAAPGSAPGSQYGTMTRQISRHNSTTSSTSSGGYRRTPSVTAQFSAQPHVNGGPLYSQNSISIAPPPPPMPQLTPQIPLTGFVARVQENIADSPTPPPPPPPDDIPMFDDSPPPPPPPPVDYEDEEAAVVQYNDPYADGDPAWAPKNYIEKVVAIYDYTKDKDDELSFMEGAIIYVIKKNDDGWYEGVCNRVTGLFPGNYVESIMHYTD [ABI1]	0.313	51.1	51.4	-0.104	-0.724	-0.695
MAELRVLVAVKRVIDYAVKIRVKPDRTGVVTDGVKHSMNPFCEIAVEEAVRLKEKKLVKEVIAVSCGPAQCQETIRTALAMGADRGIHVEVPPAEAERLGPLQVARVLAKLAEKEKVDLVLLGKQAIDDDCNQTGQMTAGFLDWPQGTFASQVTLEGDKLKVEREIDGGLETLRLKLPAVVTADLRLNEPRYATLPNIMKAKKKKIEVIKPGDLGVDLTSKLSVISVEDPPQRTAGVKVETTEDLVAKLKEIGRI [ETFB]	0.362	54	54.2	0.0272	-1.74	-0.806
MAENHAQNKAKLISETRRRFEAEYVTDKSDKYDARDVERLQQDDNWVESYLSWRHNIVDETLKMLDESFQWRKEISVNDLNESSIPRWLLEIGVIYLHGYDKEGNKLFWIRVKYHVKDQKTILDKKKLIAFWLERYAKRENGKPVTVMFDLSETGINSIDMDFVRFIINCFKVYYPKYLSKIVIFDMPWLMNAAFKIVKTWLGPEAVSLLKFTSKNEVQDYVSVEYLPPHMGGTDPFKYSYPPLVDDDFQTPLCENGPITSEDETSSKEDIESDGKETLETISNEEQTPLLKKINPTESTSKAEENEKVDSKVKAFKKPLSVFKGPLLHISPAEELYFGSTESGEKKTLIVLTNVTKNIVAFKVRTTAPEKYRVKPSNSSCDPGASVDIVVSPHGGLTVSAQDRFLIMAAEMEQSSGTGPAELTQFWKEVPRNKVMEHRLRCHTVESSKPNTLTLKDNAFNMSDKTSEDICLQLSRLLESNRKLEDQVQRCIWFQQLLLSLTMLLLAFVTSFFYLLYS [MOSPD2]	-0.0365	51.4	51.4	-0.115	1.72	0.81
